# B1: UDP-glucuronosyltransferase 2B7 (Homo sapiens) (protein)
# chain: MSVKWTSVILLIQLSFCFSSGNCGKVLVWAAEYSHWMNIKTILDELIQRGHEVTVLASSASILFDPNNSSALKIEIYPTSLTKTELENFIMQQIKRWSDLPKDTFWLYFSQVQEIMSIFGDITRKFCKDVVSNKKFMKKVQESRFDVIFADAIFPCSELLAELFNIPFVYSLSFSPGYTFEKHSGGFIFPPSYVPVVMSELTDQMTFMERVKNMIYVLYFDFWFEIFDMKKWDQFYSEVLGRPTTLSETMGKADVWLIRNSWNFQFPYPLLPNVDFVGGLHCKPAKPLPKEMEDFVQSSGENGVVVFSLGSMVSNMTEERANVIASALAQIPQKVLWRFDGNKPDTLGLNTRLYKWIPQNDLLGHPKTRAFITHGGANGIYEAIYHGIPMVGIPLFADQPDNIAHMKARGAAVRVDFNTMSSTDLLNALKRVINDPSYKENVMKLSRIQHDQPVKPLDRAVFWIEFVMRHKGAKHLRVAAHDLTWFQYHSLDVIGFLLVCVATVIFIVTKCCLFCFWKFARKAKKGKND
# B2: UDP-glucuronosyltransferase 1A10 (Homo sapiens) (protein)
# chain: MARAGWTSPVPLCVCLLLTCGFAEAGKLLVVPMDGSHWFTMQSVVEKLILRGHEVVVVMPEVSWQLERSLNCTVKTYSTSYTLEDQNREFMVFAHAQWKAQAQSIFSLLMSSSSGFLDLFFSHCRSLFNDRKLVEYLKESSFDAVFLDPFDTCGLIVAKYFSLPSVVFTRGIFCHHLEEGAQCPAPLSYVPNDLLGFSDAMTFKERVWNHIVHLEDHLFCQYLFRNALEIASEILQTPVTAYDLYSHTSIWLLRTDFVLDYPKPVMPNMIFIGGINCHQGKPLPMEFEAYINASGEHGIVVFSLGSMVSEIPEKKAMAIADALGKIPQTVLWRYTGTRPSNLANNTILVKWLPQNDLLGHPMTRAFITHAGSHGVYESICNGVPMVMMPLFGDQMDNAKRMETKGAGVTLNVLEMTSEDLENALKAVINDKSYKENIMRLSSLHKDRPVEPLDLAVFWVEFVMRHKGAPHLRPAAHDLTWYQYHSLDVIGFLLAVVLTVAFITFKCCAYGYRKCLGKKGRVKKAHKSKTH
# B3: UDP-glucuronosyltransferase 1A8 (Homo sapiens) (protein)
# chain: MARTGWTSPIPLCVSLLLTCGFAEAGKLLVVPMDGSHWFTMQSVVEKLILRGHEVVVVMPEVSWQLGKSLNCTVKTYSTSYTLEDLDREFMDFADAQWKAQVRSLFSLFLSSSNGFFNLFFSHCRSLFNDRKLVEYLKESSFDAVFLDPFDACGLIVAKYFSLPSVVFARGIACHYLEEGAQCPAPLSYVPRILLGFSDAMTFKERVRNHIMHLEEHLFCQYFSKNALEIASEILQTPVTAYDLYSHTSIWLLRTDFVLDYPKPVMPNMIFIGGINCHQGKPLPMEFEAYINASGEHGIVVFSLGSMVSEIPEKKAMAIADALGKIPQTVLWRYTGTRPSNLANNTILVKWLPQNDLLGHPMTRAFITHAGSHGVYESICNGVPMVMMPLFGDQMDNAKRMETKGAGVTLNVLEMTSEDLENALKAVINDKSYKENIMRLSSLHKDRPVEPLDLAVFWVEFVMRHKGAPHLRPAAHDLTWYQYHSLDVIGFLLAVVLTVAFITFKCCAYGYRKCLGKKGRVKKAHKSKTH
# Legend:
# [1] = substrate: O=C1[C@H](CC[C@H](O)c2ccc(F)cc2)[C@@H](c2ccc(O)cc2)N1c1ccc(F)cc1; assay: (§1) Drug glucuronidation reaction catalyzed by human recombinant UGT2B7
# [2] = substrate: CCC[S+]([O-])CCCN(CC)CC(O)COc1ccc(C#N)cc1; assay: as §1
# [3] = substrate: CO[C@]12CC[C@@]3(C[C@@H]1[C@](C)(O)C(C)(C)C)[C@H]1Cc4ccc(O)c5c4[C@@]3(CCN1CC1CC1)[C@H]2O5; assay: as §1
# [4] = substrate: CC(C)Cc1ccc(C(C)C(=O)O)cc1; assay: as §1
# [5] = substrate: COc1cccc2c1C(=O)c1c(O)c3c(c(O)c1C2=O)C[C@@](O)(C(=O)CO)C[C@@H]3O[C@H]1C[C@H](N)[C@@H](O)[C@H](C)O1; assay: as §1
# [6] = substrate: CS(=O)(=O)c1ccc(C2=C(c3ccccc3)C(=O)OC2O)cc1; assay: as §1
# [7] = substrate: CC(C(=O)O)c1cccc(C(=O)c2ccccc2)c1; assay: as §1
# [8] = substrate: C=CC[C@@H]1/C=C(\C)C[C@H](C)C[C@H](OC)[C@H]2O[C@@](O)(C(=O)C(=O)N3CCCC[C@H]3C(=O)O[C@H](/C(C)=C/[C@@H]3CC[C@@H](O)[C@H](OC)C3)[C@H](C)[C@@H](O)CC1=O)[C@H](C)C[C@@H]2OC; assay: as §1
# [9] = substrate: C=CCN1CC[C@]23c4c5ccc(O)c4O[C@H]2[C@@H](O)C=C[C@H]3[C@H]1C5; assay: as §1
# [10] = substrate: NC(=O)N1c2ccccc2C=Cc2ccccc21; assay: as §1
# [11] = substrate: COc1ccc(Cl)cc1[C@]1(F)C(=O)Nc2cc(C(F)(F)F)ccc21; assay: as §1
# [12] = substrate: O=C1Nc2ccc(Cl)cc2C(c2ccccc2)=N[C@@H]1O; assay: not read
# [13] = substrate: Cc1c(Cl)cccc1Nc1ncccc1C(=O)O; assay: not read
# [14] = substrate: O=C1Nc2ccc(Cl)cc2C(c2ccccc2)=N[C@H]1O; assay: not read
# [15] = substrate: CN1CC[C@]23c4c5ccc(O[C@@H]6O[C@H](C(=O)O)[C@@H](O)[C@H](O)[C@H]6O)c4O[C@H]2[C@@H](O)C=C[C@H]3[C@H]1C5; assay: (§2) Drug glucuronidation reaction catalyzed by human recombinant UGT1A10
# [16] = substrate: O=C(c1ccc(OCCN2CCCCC2)cc1)c1c(-c2ccc(O[C@H]3O[C@H](C(=O)O)[C@@H](O)[C@H](O)[C@H]3O)cc2)sc2cc(O)ccc12; assay: as §2
# [17] = substrate: CC(C)c1cccc(C(C)C)c1O; assay: not read
# [18] = substrate: O=C(c1ccc(OCCN2CCCCC2)cc1)c1c(-c2ccc(O)cc2)sc2cc(O[C@@H]3O[C@H](C(=O)O)[C@@H](O)[C@H](O)[C@H]3O)ccc12; assay: (§3) Drug glucuronidation reaction catalyzed by human recombinant UGT1A8
# [19] = substrate: CN1CC[C@]23c4c5ccc(O[C@@H]6O[C@H](C(=O)O)[C@@H](O)[C@H](O)[C@H]6O)c4O[C@H]2[C@@H](O)C=C[C@H]3[C@H]1C5; assay: as §3
# [20] = substrate: COc1c(C)c2c(c(O)c1C/C=C(\C)CCC(=O)O)C(=O)OC2; assay: as §3
# [21] = substrate: O=C1CC[C@@]2(O)[C@H]3Cc4ccc(O)c5c4[C@@]2(CCN3CC2CC2)[C@H]1O5; assay: as §3
# [22] = substrate: O=C(c1ccc(OCCN2CCCCC2)cc1)c1c(-c2ccc(O[C@H]3O[C@H](C(=O)O)[C@@H](O)[C@H](O)[C@H]3O)cc2)sc2cc(O)ccc12; assay: as §3
protein,measurement,setting,value
B1,Km,[1],21 µM
same,Vmax,[1],5e-05 µmol/min/mg
same,Km,[2],970 µM
same,Vmax,[2],2.1e-05 µmol/min/mg
same,Km,[3],24 µM
same,Vmax,[3],2.6e-05 µmol/min/mg
same,Km,[4],55 µM
same,Vmax,[4],0.000477 µmol/min/mg
same,Km,[5],149 µM
same,Vmax,[5],9.9e-05 µmol/min/mg
same,Km,[6],42 µM
same,Vmax,[6],4.7e-05 µmol/min/mg
same,Km,[7],112 µM
same,Vmax,[7],0.00045 µmol/min/mg
same,Km,[8],449 µM
same,Vmax,[8],0.000588 µmol/min/mg
same,Km,[9],260 µM
same,Vmax,[9],0.000461 µmol/min/mg
same,Km,[10],214 µM
same,Vmax,[10],1e-06 µmol/min/mg
same,Km,[11],14 µM
same,Vmax,[11],0.00029 µmol/min/mg
same,Km,[12],333 µM
same,Vmax,[12],7e-06 µmol/min/mg
same,Km,[13],64 µM
same,Vmax,[13],0.00022 µmol/min/mg
same,Km,[14],203 µM
same,Vmax,[14],2e-06 µmol/min/mg
B2,Km,[15],12600 µM
same,Vmax,[15],0.000629 µmol/min/mg
same,Km,[16],5 µM
same,Vmax,[16],0.00055 µmol/min/mg
B3,Km,[17],412 µM
same,Vmax,[17],0.00382 µmol/min/mg
same,Km,[18],8 µM
same,Vmax,[18],0.00061 µmol/min/mg
same,Km,[19],26000 µM
same,Vmax,[19],1.3e-05 µmol/min/mg
same,Km,[20],298 µM
same,Vmax,[20],0.0326 µmol/min/mg
same,Km,[21],1550 µM
same,Vmax,[21],0.000495 µmol/min/mg
same,Km,[22],59 µM
same,Vmax,[22],0.002 µmol/min/mg

# — ChEMBL document CHEMBL1908105, “UDP-glucuronosyltransferases and clinical drug-drug interactions” (Pharmacol Ther, 2005)
